Measured values as given in paper PMC8480326, “Chemoenzymatic glycan-selective remodeling of a therapeutic lysosomal enzyme with high-affinity M6P-glycan ligands. Enzyme substrate specificity is the name of the game” (Chemical Science, 2021).

Biological target: T1, Recombinant human IGF-II R (CI-MPR) (Homo sapiens, UniProt P11717)
T1 construct: purchased R&D Systems
Test: SPR binding to immobilized CI-MPR
Method: Surface Plasmon Resonance (SPR) Measurements. SPR measurements were performed on a Biacore T200 instrument (GE Healthcare). Recombinant human IGF-II R (CI-MPR) was purchased
from R&D Systems. Approximately 7000 resonance units (RU) of CI-MPR was immobilized on a
CM5 sensor chip in a sodium acetate buffer (25 μg/mL, pH 4.0) at 25 °C, using the amine coupling kit
provided by the manufacturer. Mannose 6-phosphate containing glycopeptides or glycoproteins were
determined at 25 °C under a flow rate of 10 μL/min. HBS-P+ buffer (10 mM HEPES, 150 mM NaCl,
0.05% surfactant P20, pH 7.4) was used as sample buffer and running buffer. Association was
measured for 3 min and dissociation for 10 min at same flow rate (10 μL/min). The surface
and glycoprotein analytes flowed over an immobilized chip with 2-fold serial dilution of the highest
concentration of 4 μM (for glycopeptides) or 1 μM (for RNase B) or 250 nM (for rhGAA).
analyses were performed by global fitting of the binding data to a 1:1 Langmuir binding model using

T1 sequence (P11717 41-2491): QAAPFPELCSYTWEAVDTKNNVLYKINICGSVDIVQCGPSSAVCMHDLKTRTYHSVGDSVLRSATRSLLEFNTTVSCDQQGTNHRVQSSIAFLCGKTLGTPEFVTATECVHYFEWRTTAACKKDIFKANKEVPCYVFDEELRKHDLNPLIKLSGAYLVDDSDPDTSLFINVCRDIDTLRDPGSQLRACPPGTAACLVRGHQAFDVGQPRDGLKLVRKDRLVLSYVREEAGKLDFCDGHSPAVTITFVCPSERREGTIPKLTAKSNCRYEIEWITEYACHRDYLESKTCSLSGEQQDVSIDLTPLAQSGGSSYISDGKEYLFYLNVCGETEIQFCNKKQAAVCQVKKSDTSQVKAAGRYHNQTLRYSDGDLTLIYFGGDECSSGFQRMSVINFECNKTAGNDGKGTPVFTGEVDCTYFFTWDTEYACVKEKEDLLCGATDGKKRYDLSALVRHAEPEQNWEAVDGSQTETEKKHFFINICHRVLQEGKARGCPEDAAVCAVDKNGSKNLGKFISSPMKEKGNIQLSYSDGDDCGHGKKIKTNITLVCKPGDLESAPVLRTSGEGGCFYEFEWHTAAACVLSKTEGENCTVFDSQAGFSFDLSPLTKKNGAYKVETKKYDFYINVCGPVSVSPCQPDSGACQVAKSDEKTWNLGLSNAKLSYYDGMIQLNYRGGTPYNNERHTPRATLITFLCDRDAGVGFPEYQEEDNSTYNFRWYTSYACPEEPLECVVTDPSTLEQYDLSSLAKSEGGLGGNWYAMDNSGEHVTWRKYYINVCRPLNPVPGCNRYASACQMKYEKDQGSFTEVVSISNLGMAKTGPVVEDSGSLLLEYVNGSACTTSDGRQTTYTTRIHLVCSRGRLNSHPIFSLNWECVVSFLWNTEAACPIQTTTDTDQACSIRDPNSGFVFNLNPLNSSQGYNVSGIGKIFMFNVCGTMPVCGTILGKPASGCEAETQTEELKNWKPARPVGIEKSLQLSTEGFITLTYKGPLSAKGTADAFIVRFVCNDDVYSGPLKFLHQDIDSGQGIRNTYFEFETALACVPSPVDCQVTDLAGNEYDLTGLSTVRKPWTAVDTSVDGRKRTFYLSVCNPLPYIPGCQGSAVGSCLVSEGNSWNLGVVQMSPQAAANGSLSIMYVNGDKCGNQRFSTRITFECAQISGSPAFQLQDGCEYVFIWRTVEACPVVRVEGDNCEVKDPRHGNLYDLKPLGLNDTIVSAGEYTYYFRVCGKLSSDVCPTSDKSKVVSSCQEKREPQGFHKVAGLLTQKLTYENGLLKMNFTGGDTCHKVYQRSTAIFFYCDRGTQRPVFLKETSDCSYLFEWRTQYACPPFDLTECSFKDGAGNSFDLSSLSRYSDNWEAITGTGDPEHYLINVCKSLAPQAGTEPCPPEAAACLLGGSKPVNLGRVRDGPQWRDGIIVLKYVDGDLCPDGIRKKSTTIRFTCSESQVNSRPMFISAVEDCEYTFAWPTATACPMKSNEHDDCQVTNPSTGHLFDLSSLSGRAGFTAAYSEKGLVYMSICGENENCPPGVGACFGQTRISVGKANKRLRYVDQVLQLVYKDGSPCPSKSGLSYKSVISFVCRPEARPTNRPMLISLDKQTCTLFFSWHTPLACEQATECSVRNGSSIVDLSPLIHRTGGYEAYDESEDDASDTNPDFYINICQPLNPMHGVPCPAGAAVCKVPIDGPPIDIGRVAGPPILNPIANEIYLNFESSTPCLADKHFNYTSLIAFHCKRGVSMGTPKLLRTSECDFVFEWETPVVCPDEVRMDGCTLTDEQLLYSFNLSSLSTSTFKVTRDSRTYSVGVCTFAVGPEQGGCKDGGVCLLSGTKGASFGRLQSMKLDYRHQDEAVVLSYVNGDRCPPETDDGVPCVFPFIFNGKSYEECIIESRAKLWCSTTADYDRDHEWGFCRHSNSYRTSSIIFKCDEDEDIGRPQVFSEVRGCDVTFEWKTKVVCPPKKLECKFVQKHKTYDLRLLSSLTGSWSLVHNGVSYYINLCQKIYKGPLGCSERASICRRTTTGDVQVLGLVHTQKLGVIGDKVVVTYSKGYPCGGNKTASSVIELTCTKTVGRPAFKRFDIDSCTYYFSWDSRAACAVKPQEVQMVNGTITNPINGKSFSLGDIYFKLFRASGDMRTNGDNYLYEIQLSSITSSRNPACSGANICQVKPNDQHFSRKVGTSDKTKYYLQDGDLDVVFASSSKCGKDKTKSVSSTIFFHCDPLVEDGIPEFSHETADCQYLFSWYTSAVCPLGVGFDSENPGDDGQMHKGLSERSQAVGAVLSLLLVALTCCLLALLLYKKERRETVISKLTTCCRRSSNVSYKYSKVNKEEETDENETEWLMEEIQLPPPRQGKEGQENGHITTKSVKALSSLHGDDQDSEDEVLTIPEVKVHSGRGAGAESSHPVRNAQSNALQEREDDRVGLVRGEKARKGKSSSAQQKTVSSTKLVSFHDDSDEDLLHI

B1: 68: M6P-containing RNase B, remodeled with tetrasaccharide oxazoline 8 by Endo-A (protein, UniProt P61823 27-150, looked up)
Ribonuclease pancreatic: KETAAAKFERQHMDSSTSAASSSNYCNQMMKSRNLTKDRCKPVNTFVHESLADVQAVCSQKNVACKNGQTNCYQSYSTMSITDCRETGSSKYPNCAYKTTQANKHIIVACEGNPYVPVHFDASV
modifications: M6P-tetrasaccharide glycan remodeled by Endo-A
notes: M6P-containing RNase B, remodeled with tetrasaccharide oxazoline 8 by Endo-A
SPR, immobilized CI-MPR, 25 °C, average of three independent experiments
  Kd: 15.8 nM
Representative SPR sensorgram, 1:1 Langmuir fit, association constant
  Ka: 6.877E+4
Representative SPR sensorgram, single experiment
  Kd: 15.5 nM
